Test results published in patent US20090325168.

Legend:
[1] = molecular target: T1, Fm-G2D2D, Fm-K[F1]DBGDEVDGIDGPK[F1]GY (compound 10 of Table 12)
T1 chain: KDXGDEVDGIDGPKGY

[2] = molecular target: T2, Fm-CGD2D, Fm-K[F1]DBJGDEVDGIDGJPK[F1]GY (compound 11 of Table 12)
T2 chain: KDXXGDEVDGIDGXPKGY

B1: CPP32 protease (protein)
chain: SGISLDNSYKMDYPEMGLCIIINNKNFHKSTGMTSRSGTDVDAANLRETFRNLKYEVRNKNDLTREEIVELMRDVSKEDHSKRSSFVCVLLSHGEEGIIFGTNGPVDLKKITNFFRGDRCRSLTGKPKLFIIQACRGTELDCGIETDSGVDDDMACHKIPVEADFLYAYSTAPGYYSWRNSKDGSWFIQSLCAMLKQYADKLEFMHILTRVNRKVATEFESFSFDATFHAKKQIPCIVSMLTKELYFYH
Q: Which “hydrolysis rate, fold increase over compound 4 (Fm-DEVD)” value [1] does the source give for B1 here?
A: The value was “The hydrolysis rate was increased by 3-fold between compounds 4 ... and 10”.

Q: What about the “hydrolysis rate, fold increase over compound 10 (Fm-G2D2D)” value [2] of the same protein?
A: The value was “the hydrolysis rate was further increased by ca. 3-fold over the above glycine residue insertion”.

Q: What about the “substrate hydrolysis rate, fold increase over compound 4 (Fm-DEVD)” value [2] of the same protein?
A: The value was “overall at least a 9-fold increase in substrate hydrolysis rate was accomplished (compounds 4 and 11, Table 12)”.
